Blank lines part the entries; values can stand above or below the binder they belong to.
Tests used:
[1] = target: T1, full length WASP cloned into the bait vector pGBT9 (Gal4 binding domain fusion) (UniProt P04386 1-147; P42768 1-502); test: yeast two-hybrid (HF7c); - means no growth on selective medium
T1 construct: also called WAS protein
Experimental: (§1) Yeast transformation and colony analysis were performed according to the manufacturer's instructions (Matchmaker Two-Hybrid System Protocol, CLONTECH).

[2] = target: Nck-GBT9 (full-length Nck in the bait vector pGBT9) (UniProt P04386 1-147; P16333 1-377); test: as above
Experimental: as §1

binding result [1]: no binding | binding result [2]: no binding
B1: human TRAF1 (amino acids 62-416) in pGAD424 (other, UniProt Q13077 62-416, looked up, not shown: large carriers)
chain: LQSISPGSRLRTQEKAHPEVAEAGIGCPFAGVGCSFKGSPQSVQEHEVTSQTSHLNLLLGFMKQWKARLGCGLESGPMALEQNLSDLQLQAAVEVAGDLEVDCYRAPCSESQEELALQHFMKEKLLAELEGKLRVFENIVAVLNKEVEASHLALATSIHQSQLDRERILSLEQRVVELQQTLAQKDQALGKLEQSLRLMEEASFDGTFLWKITNVTRRCHESACGRTVSLFSPAFYTAKYGYKLCLRLYLNGDGTGKRTHLSLFIVIMRGEYDALLPWPFRNKVTFMLLDQNNREHAIDAFRPDLSSASFQRPQSETNVASGCPLFFPLSKLQSPKHAYVKDDTMFLKCIVETST
notes: Control prey; also called tumor necrosis factor receptor-associated factor 1

binding result [1]: no binding | binding result [2]: no binding
B2: pGAD424 without insert (Gal4 activation domain alone) (other, UniProt P04386 768-881, looked up)
chain: ANFNQSGNIADSSLSFTFTNSSNGPNLITTQTNSQALSQPIASSNVHDNFMNNEITASKIDDGNNSKPLSPGWTDQTAYNAFGITTGMFNTTTMDDVYNYLFDDEDTPPNPKKE
notes: also called None (pGAD424)

Source: patent US20020199211A1 (CHILDREN S MEDICAL CENTER, published 2002)
